pKi: −log10 of the molar value.
Assays:
Factor Xa [1] = assay: cell-based or functional assay
Factor Xa [2] = assay: modified prothrombinase complex assay (50 pM FXa, 1.35 µM prothrombin)
Factor Xa [3] = assay: reconstituted prothrombinase complex assay (250 pM FXa, 2.67 µM prothrombin), thrombin generation

Q: Which results are given for “naturally occurring FXa inhibitor isolated from dilute leech saliva (DLS) of Hirudo medicinalis”?
A: IC50, prothrombinase complex assay (thrombin generation) (Factor Xa [1]): 190 pM; pKi (Factor Xa [2]): 9.92; pKi (Factor Xa [3]): 10.14
